*1 amine or outer side, *2 acyl side, *3 side chain or, on linkers, in order; H or OH if unused. Bridges are numbered along the chain shown (N, C = ends). Where no end group is shown, it is not given here. TBMB = c1c(C[*:1])cc(C[*:3])cc1C[*:2]

This is an account of results in patent publication US20220133732A1 (Bicycle, published 2022).

B1: 61-01-02-N001 (peptide)
peptide: ACTECWVDGWVPCA
modifications: linker 2-5-13 via TBMB
notes: Bicyclic peptide on TBMB scaffold
B2: 61-01-04-N001 (peptide)
peptide: ACLECWVDGWVPCA
modifications: linker 2-5-13 via TBMB
notes: as for B1
B3: 61-01-09-N001 (peptide)
peptide: ACGECWVDGWVSCA
modifications: linker 2-5-13 via TBMB
notes: as for B1
B4: 61-18-N001 (peptide)
peptide: ACWWCEDITGRPCA
modifications: linker 2-5-13 via TBMB
notes: as for B1
B5: 61-01-08-N001 (peptide)
peptide: ACRECWVDGWVECA
modifications: linker 2-5-13 via TBMB
notes: as for B1
B6: 61-01-05-N001 (peptide)
peptide: ACEECWVDGWVPCA
modifications: linker 2-5-13 via TBMB
notes: as for B1
B7: 61-01-03-N001 (peptide)
peptide: ACSECWVDGWVSCA
modifications: linker 2-5-13 via TBMB
notes: as for B1
B8: 61-01-01-N001 (peptide)
peptide: ACGECWADGWVPCA
modifications: linker 2-5-13 via TBMB
notes: as for B1
B9: 61-01-07-N001 (peptide)
peptide: ACTECWIDGWVPCA
modifications: linker 2-5-13 via TBMB
notes: as for B1

One experiment has as its target T1, human carbonic anhydrase IX (CAIX) (human, UniProt Q16790 38-414). The experiment can be described thus: cell-based or functional assay.
For the molecule B1, the “Enzyme IC50” value is 815 nM.
Consider B2, for which the “Enzyme IC50” value came to 855 nM.

The next experiment concerns the target T1, human carbonic anhydrase IX (CAIX). The experiment is described as follows: competition fluorescence polarisation, tracer A-(SEQ ID NO:1)-A-Sar6-K(FI); n = 1.
For B3, the Ki came out at 39.8 nM.
As to B4, affinity was put at a Ki of 312 nM.
On the same count and under the same terms, then B5, with 5.6 nM; and B6, with 12.2 nM.

For the next experiment the target is unchanged. The experiment is described as follows: competition fluorescence polarisation, tracer A-(SEQ ID NO:1)-A-Sar6-K(FI).
B7 showed an inhibition constant (Ki) of 22.7 nM.
Take B8: the Ki came to 81.5 nM.
Same read-out and setting: then B1, with 7.13 nM.
B2: the inhibition constant (Ki) came to 5.77 nM.
Same read-out and setting: then B9, with 7.9 nM.
